Source: the DeepSol protein solubility set

experiment: soluble on expression in E. coli; label from the status in PepcDB or PDB records

Sequence	soluble on expression in E. coli
MAHHHHHHMIRKIIILMFTFFSNIHNEKIYHHKQRRKFLKGPLGYLNRNVIQKKHYNLYAKKFINYKEIQIQRINDYRKRSGVDKNNINYNLRDTYNYHETHLFVRNEVLPTLAKIENENLKEKEKNKEIFRNINDYNSNFTRQTFLQFLMDLYNIFLKIDDLFLENKTYFSILIYNGPMQLTNHLYDDIIYVSSVVENSDDVSPSEYCMEYISHLENLCEENKLSFLAHAYVFYKNFHLSKEHLLKSICKYLNIIKKLKSSTYVADVENFEVSQKCFLHLLFCLNKMSRKWSRWEKDNFLASLHNATNKMMILTKHFEKVKS	not soluble
MAHHHHHHMISRINIDGSVNGRFCKKINNNIDCKLNFNTYAKNDTRNMYEMSLEVNKPLYTYNFKSIWQGAWIFNTSYTQLLTKKLQAGVDLTYIASNCASIGSFGLRYNHKNNVLTMQIVRQPNFKSPEFMLNQTHLYKIQYAKKISDRLSLGTELEITPQTKESAMRLGWDYSFRHAKVQGSIDTSGKISVFTQDYSGFGVSGYIDYLNNDYKFGFMMHISPSQEQPQTAA	not soluble
MAHHHHHHMIVKVFDYIYISNVYNANDIYELIKLNIGGVLTCFDCTCIEWCHHNDTNVTNKIFYKDIFVNTKKDLIKCDVPIITNKSVNSDIIGGTHQINNYYNEQNNNYHDNTYKEFTQTHKTNIDPSQIKSDHINEERKEHYDYIIFPSDIINNTQCNNNNLKDYIKSMLILKEDAYIDFDVIHMD	not soluble
MAHHHHHHMKALKLFTNRICPFCQRVLITAKEKRVTLEEVEVPLGDDMPQWYKELNPRETVPMLQVDGKKCMIESDLISRYIDRISSPENALIGSSPYQRHRVEFFLSEIGDLVKAYFGLVRDPFNEEKRKSVDHNTAYIEGIIAEHQGDGPYFLDDTFSMAEVMVVPFLACFRPVLSYYCGYDIFHEAPRLKKMYVTSMQRTTVKETISKPEEYIIGFKSKVPKSHVTWSLAPGYVLFVNKYSPFSDRPRLACALKNIDLPMLEIDLKQLPSWFRWFNQRETVPTLLTPRGTYVHESQLIVHYLDDGFPEHGPALLPKDADGSYHVRFVESNVDYFMDAMYSLIKDPKNTNAKEEFDWAAGELEKLLAEHQFGEGPFFGGATMNAADVSLLPMLVHLKACTPDLTEGQDLLANYKLLAAAAEAGLTSEAGKKVFLSLSEYSSIYKTFLRPSS	soluble
MAHHHHHHMKEYTGNRSVPTTIQNKKKSITEEINKSLHTQDSKNNQNNYEICLSDVSVSTISNSSGIDSDLYEEVIKKIKKEKKRKRKESKRDIYKEKVKYDKKESNSNDENKNDRGNEKDRKNNSDIENNSDSEYINDKEKDRKKRKHIDIDKKKRNKESHHHVNKKKDKNISTRKKRKYTSSLSSESYERRKDKKKKKEKYRNSESSYKSMVDENIPKDPFNPLLLAYEKKEKKKYRKNDEHNDLNDRWKHDRYENTSDDEDINIEKAYENSKPYFDPHEFPKILWKSKAGGVCVPQISDDKK	not soluble
MAHHHHHHMKFIPLDSFSALNSLLQGVEAQGCCITMRLEAYTCRHTKEERQIANSIACYQNNVQLTPPISPLPTIGAYAGCTQEALPPLVLGGSAENVAASYSLVSPNEIDDRLVYFVAALNTVYESDGYDFSVLRENDFVRYTEPQFRTEVSSTLQSLPEQCRPAVQRFWPTIEEVVENAESGCEYYEFRCPSCNPLADTTVYARHYFVYNRRKKVLVLLVEYGESNPYRGDDGLPHAGDPTSAWDAESPTYASTPDLGEEGEAYDGGKNRQFYGYY	soluble
MAHHHHHHMKGCTLQNNFNHTAPFCGEWNSTILSGSLPPNSGGSSCVINLIKDEVHTVNGNTPRGITITSDTTKDGVFCTMDANGCPFAVDREIERGVNRMKAITKHGTCHMAYATSGGRTCDDSYDRSTRNYHDEEDEEWYEEDEEEGEDSPRIHIIDEHRDGRLLGNILCGMSRAGERISQGLDMLSPLEKRKSGRCAAIESVDYNNTRRRGGGGAETQKGLFQNYYNTGRGRWASRNHCRTNGWDESVSVESCFSHTYNQQWRGREPDYAMMEAHAALDGRSFCEGTYLSSTKLSERKKRVALSGSRVCRDAGKVIVQDNCPYDHKKRHKGRRQCQSPFGEEKIRANDPFDSPKNAITHIKKAGSAGSDDNDSCNPHSKSPGLTGSGSRCSQKETAGRSAEQRNGSGKAASPKTSPHKDELKEKESTVVKKD	not soluble
MAHHHHHHMKGKGPIKIVLFGAPGVGKGTFAEILSKKENLKHINMGNILREEIKRKTTIGKEIDKVVTSGNLVGDDLIIRIVKDEIAKVTIQKDCYFKGFILDGFPRNLFQCNELAKITNIDLFINIYMPRHILIKKIMGRRICNDCNRNFNVVHIREDSYDMLPILPPQDCETCKGNPKLQTRSDDSEEIVAHRLNTYELTNSPLINFFKNSNCNFVDFEIKRGLQDFDSFYRIVSQNL	not soluble
MAHHHHHHMKGSNTVHTREANANEVHASRQDMRAALLPSDTRILVSRIPASAVSVVSDETRAKGRRRCLVTRTLRRCPEMMSHRRGGHAALVSLLLPLTSHRFCVSPSHVLSIASCAFPCTHSCCVQQGVHPSHLPACLPACRRPRACFVSALCRAHEHAVMFSYNNIIEKGEPLNKEIIDHVLDHVTEFPTPTMVSVGDGKADCIVLENFLTHEECDQLVAACEKVGYTFWLQKNHHDADGEATCDSGSKAVRVVDTIEANFPHLSAKLYERIARVVSLKPKCFSEDMPNAEELFERELAGTWVPHALSENLLFGRYHPGGHFMPHVDGATILDLNTRSFYTLLIYLNDCLHGGETFIFAGEQCNVMYLDEKENQYRGNATQRVGAVYPKKGSAAFFYYNLLHEGAPVLEGHKYICRADLLYHRTPTIFTSEADEKAFKAYQEARLAESHGDAERACQLFQRVRKLSKGVASIFQIE	not soluble
MAHHHHHHMKPEGAKGAVVSDDVGGDSANLAYCSDRITLLSRADIEAFTCCSNGAGGGGASNSENHNGGCGGLASEAQSVDPCSTLDTCIAALPMFLQSEALVLRRHEQQFRHHMKELVELTECITLLCDGSLRQHAAAVAGQPAEQSADAQRAESAALHRMLHRAEELERYVRAAAVERLRSAQRMVLAASTTKRREKVGRKSAVRPPKATK	not soluble
MAHHHHHHMKPSQPSYDKRAYQTIYPQYLDAELTPHDGRRLTRTQAVDDPTTNEVVEALKELGYTDIFVEPSASFPRSQGSIKYIMPPKGCVKVAIKRPKGEHYIPKSDFDTQTRGVTVEDIPNKMELLRRVSALIKIQHALKKQAEAAAASQTANTRKK	soluble
MAHHHHHHMKQVKAAFEANKRVYESVLLTFKGVDGYDVYNCSVPFSYKGKTHIYGRVEKRDIWAASHVRLFEETGKDEFTAVPELSWELEDPYIAKINNEMIFGGTRVRKNGNAILSYYGYFYRGTPDELTYFTRGPGCMKDIRVLQLQDGRLGVFSRPRVGRKASIGFVILNSIDELGAEVIAKAPPLDILSENAWGGVNQAYLLSSGKVGCIGHYSYEDTNEKQQPQSVYVNYAFVLDPQSRAITGAKIIGTKSCYPPCEPKVPLLADCVFASGIVMRSDGKVDLYSGVGDSHEGRITIDYPFKGHGTIIGDLHFPMASSL	soluble
MAHHHHHHMLHEPVSTANGHMPRRSSLGCRLRSSPFLSCVAYVNTLTCDSLMHALRATVSQRIATGVDVECHRLTSGAAVVSTPTQVHISITSANFVRQRSSRPALLPLLTHPPPPSPSLHPVMSRSRQQQAAEVTLHHFFKTERVIRLECERREAKARLKLIDIMSGDLDDQLLCVAQFKKEWLQSRRVLEEARQAVVQEEGSKRAYVEEEYVRTINTMSRHYHPLSSRVV	not soluble
MAHHHHHHMLHNGKKNPTQAVDDGNPRKSKHREVGSHCKGLDKKENINKSGEEHIKKVEGRENCEPHDIKRRGEIDKVLIQCEELQRKELEALKLIYVRDRELVIQNENDEKRDTIIHMQLNDENISDNVINLTFELPKDYPLKSFLLIDINVKNFTPDMNNYLNQEVYKDMPNYIAHENSILSIIYRINELVENIQNSKKTSVDHSYLSSEEREEYVEEGAFDPSEDQLIKDHVPFLYCSGMTYSHHRRVLARRLCYSHHILSLVKRTYIIKWAKDLKIGGYSKIGYPGIIICEGPKEEVDFYINSLNKLRWKHFDCRGMEDIILKEYEDLDDARVLPRTMYELDPKGMSTLSNICTECGLRDLFLTSMKIYHT	not soluble
MAHHHHHHMLQNMSNILDRTCWSCFFFFLKRKYSYMRRGTSTYPTTGCPLKKHEGGSHCPRARNWTASAGDIVGNGRRAEVGLARLKS	not soluble
MAHHHHHHMLQRVLARLPGAPACISDPLHMRALLELIGYVEPGDNLNRVAYAGELHYPPQAHAFMAELLAEGRQRDGGDAFDAIRERRAGPGYAIDSATTSEVDDAIGVCVDGATGAKYFVVYVSDATVYCPFDSTLEQLTARRLTTTTYLPEGVFFMLPKPIVEAATLREDRPCRTFNVIFQIDESTGEVKNYSVAVGWLDQLRRITYDQVQEIVNKEEGKEEGDEHDSAAVVAAAHDTDASSSPPLLAGCADSAHPPPAWMTREDKDNLFYILRCARLRLRARLERQQRQQQQHHHGAGGKDCGDEGVPATPPVDFSLPDPLIEVKGTKVLSVTDQVISTQDARLAVAELMIAANEVCSRVAQANHIAMPFRGTRTLSSDHLVAHYYTEPEGVRTLMSLDASHIFLAEAMQSSVRRLSTVTRAIYHHVPLHHAGLDTTFYTHSTSPLRRYADMLVHHQLKTWLWQQRRGGGSSDHTSATSTSAARAAMVAAPQQLIPEHAMASLCTMISAKQERASLLQDNSTRFWILRYLEDLERASANAAAAARGDGDGDTHRKKTYLCLVGETRRVVAAPAYSRFACSSAEMSQLLSLPLTAPSTTSSTVRRPASLQMDAVARWRQETPEFTYVSDVYIPEVQLAHTITHHRDDVLVGAVLECHITRVQPTQGVLELAIERVLPGGDERHYERLWMGGFVSQLDA	not soluble
MAHHHHHHMLRLTQAVLRVQSHQKKRAQHPNAGTRFGRVYNRGFVRYGFGGFGMSVYSSKKDRTFKVMPVPPPPPATTAVEQRDDFADNRGLSATTRTLSPTFRMFALEDGGVLVSHPSHAQIMRWNQRVHTEEGKAANSTVMDEYVNSRIQAIIADNTIENTSLSQWRKAHMWNVIKSHGKLQRRWGTPDFVMGARSTLYNN	not soluble
MAHHHHHHMLTDNQNCLEMERSDKRVTVALINTRSGERTAAEFVRKQMETHLGEENVFYLFPSGKPAIAEAKKFLERHNPAVVIVAGGDGTVSLALDITDGLRRTNMLSATSAYVAVLPMGTGNDLSRTLGFGGGYVKPLLNPEKKFKRLLDRLAHAKGIKMDRWSVQIQKKSTLTVASTGEDAHAGDSSRTYGVDDVHVVEKTMMNYFSIGFDATIVRQFNDFRNDHPTMCSQRSLNKLWYGCFGCGSMCNSVALPRKQMKLTVDDKCVAIPPGTKALLVTNVKTYAGGAVLWKDNRCRFAKPDVGDGLLEVTALYGVWHFAGVRMGIRKAMKVAQGNCIRIETPAYFAMQLDGEPVDELACGEEMIDVSITFFSRTLVMTCEGS	not soluble
MAHHHHHHMLVFRRNFSRFINNNTPKRGVRKVLHKNVTQYGKYTPNSNIVNQQNDNNKLVRGGGGLLSTFYESFIYGCGFFLSNRLLDQIFGPRTYDSFSNNMDYSNENSGGQAPDNYNSYPSENLNNNDPTINDNDFQQDIGLDDDTFDF	not soluble
MAHHHHHHMLWAIKHTDYPTMSTGLETLDLFLENVSKSEYAEVFFKAYMQRILVDVMVASMDSLHASGFQHHVRILQKLFNVSSMVPPDTPTIGKDVIRAYLLDSLTVIPTLTTTSILSFVDTCYESFTDDERFRTQFADFLIEVKVWGAEQENKMQEEDERRLREETIPGFSNLSMEIRRQTCSPPSDPGRCADGQGRGPASVRRFHCRRHRHPSKYTCTPLSLFPLKNPSADPAVRDVRPSYFVDCVGG	not soluble
